PMC12337650 (iScience, 2025)

Molecular target: the molecule itself
Experiment: cross-linking

B1: hIRE1α(CD) (residues 469–977) (domain or fragment)
chain: HQQQQLQHQQFQKELEKIQLLQQQQQQLPFHPPGDTAQDGELLDTSGPYSESSGTSSPSTSPRASNHSLCSGSSASKAGSSPSLEQDDGDEETSVVIVGKISFCPKDVLGHGAEGTIVYRGMFDNRDVAVKRILPECFSFADREVQLLRESDEHPNVIRYFCTEKDRQFQYIAIELCAATLQEYVEQKDFAHLGLEPITLLQQTTSGLAHLHSLNIVHRDLKPHNILISMPNAHGKIKAMISDFGLCKKLAVGRHSFSRRSGVPGTEGWIAPEMLSEDCKENPTYTVDIFSAGCVFYYVISEGSHPFGKSLQRQANILLGACSLDCLHPEKHEDVIARELIEKMIAMDPQKRPSAKHVLKHPFFWSLEKQLQFFQDVSDRIEKESLDGPIVKQLERGGRAVVKMDWRENITVPLQTDLRKFRTYKGGSVRDLLRAMRNKKHHYRELPAEVRETLGSLPDDFVCYFTSRFPHLLAHTYRAMELCSHERLFQPYYFHEPPEPQPPVTPDAL
binding result: binds
